Tests used:
Experiment in all cases: purified protein
Settings in all cases: pH 6.5, 55 °C, 10 min, sodium phosphate, metal-dependent enzyme
[1] = substrate: O=[N+]([O-])c1ccc(O[C@H]2OC[C@@H](O)[C@@H](O)[C@@H]2O)cc1
[2] = substrate: O=[N+]([O-])c1ccc(O[C@@H]2O[C@H](CO)[C@H](O)[C@H](O)[C@H]2O)cc1
[3] = substrate: C[C@H]1O[C@@H](Oc2ccc([N+](=O)[O-])cc2)[C@H](O)[C@@H](O)[C@H]1O
[4] = substrate: O=[N+]([O-])c1ccc(O[C@H]2O[C@H](CO)[C@@H](O)[C@@H]2O)cc1

B1: ThABF (Trichoderma harzianum) (protein)
chain: GPCDIYSSGGTPCVAAHSTTRALYSAYTGPLYQVKRGSDGATTTISPLSSGVANAAAQDSFCAGTTCLITIIYDQSGRGNHLTQAPPGGFNGPESNGYDNLASAIGAPVTLNGQKAYGVFISPGTGYRNNAASGTAKGDAAEGMYAVLDGTHYNGACCFDYGNAETSSRDTGNGHMEAIYYGDSTVWGTGSGNGPWIMADLENGLFSGSAVHNNAGDPSISYRFVTAAVKGQPNQWAIRGGNSASGSLSTFYNGARPSASGYNPMSKEGAIILGIGGDNSNGAQGTFYEGVMTSGYPSDATENSVQANIVAAKYAVTSLTSGPALTTGSSVSLRATTACCTTRYITHSGSTVNTQVVSSSSATAPKQQASWTVRAGLGNSGCFSFESKDTPGSYIRHNNFVLLLNANDGSKQFAEDATFCPQAGLNGQGSSLRAWGYPTRYFRHYDNVLYVASNGGVHTFDATGSFNDDVSFVISASFA
Km [1]: 3.30 ± 0.16 mM
kcat [1]: 13.4 s⁻¹
kcat/Km [1]: 4070 M⁻¹ s⁻¹
Km [2]: 1.68 ± 0.12 mM
kcat [2]: 35.5 s⁻¹
kcat/Km [2]: 21100 M⁻¹ s⁻¹
Km [3]: 6.51 ± 1.00 mM
kcat [3]: 35.7 s⁻¹
kcat/Km [3]: 5480 M⁻¹ s⁻¹
Km [4]: 6.75 ± 3.24 mM
kcat [4]: 1.61 s⁻¹
kcat/Km [4]: 238 M⁻¹ s⁻¹

Reference: paper PMC8155123, “A novel fungal metal-dependent α-L-arabinofuranosidase of family 54 glycoside hydrolase shows expanded substrate specificity” (Scientific Reports, 2021)
